Results on 30 substances are retold here after patent publication US20090018029A1.

The first experiment addresses human growth hormone receptor on IM-9 cells (human) (UniProt P10912). Nature of the experiment: cell-based or functional assay.
Chain of UniProt P10912 (P10912 19-638): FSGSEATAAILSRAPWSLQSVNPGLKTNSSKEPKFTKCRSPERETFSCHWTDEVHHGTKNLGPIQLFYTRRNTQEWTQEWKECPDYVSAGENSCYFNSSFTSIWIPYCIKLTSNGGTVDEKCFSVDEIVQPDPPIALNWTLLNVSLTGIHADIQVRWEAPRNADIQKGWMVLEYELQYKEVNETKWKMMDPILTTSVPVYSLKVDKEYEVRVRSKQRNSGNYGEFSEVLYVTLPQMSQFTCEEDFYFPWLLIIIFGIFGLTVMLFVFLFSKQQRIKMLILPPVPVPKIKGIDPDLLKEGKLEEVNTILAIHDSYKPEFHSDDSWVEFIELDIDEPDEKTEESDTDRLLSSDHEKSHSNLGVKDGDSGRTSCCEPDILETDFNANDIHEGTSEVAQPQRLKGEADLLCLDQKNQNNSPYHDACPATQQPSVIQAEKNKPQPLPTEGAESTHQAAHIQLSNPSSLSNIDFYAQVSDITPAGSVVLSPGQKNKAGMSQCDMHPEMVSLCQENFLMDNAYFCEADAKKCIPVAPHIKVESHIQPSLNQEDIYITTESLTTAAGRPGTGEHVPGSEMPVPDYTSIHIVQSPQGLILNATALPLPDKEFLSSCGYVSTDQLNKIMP
For the substance “rat growth hormone, wild type (from UniProt P01244 27-216) (ligand)”, the EC50 of STAT5 phosphorylation in IM-9 cells (phospho-STAT5 MFI, flow cytometry) was more than 200000 nM.

The next experiment deals with hIFN receptor. Nature of the experiment: BIAcore biosensor; orientation not stated. A general note: SPR reads the build-up and loss of mass on a sensor chip optically.
The term Kd denotes the concentration at which binding is half-saturated. A higher Kd goes with a looser complex. Take “6His-E96pAF IFNα2A (from UniProt P01563 24-188) (ligand)”: the Kd was 12 nM.
Still for that read-out and setting: to “6His-E107pAF IFNα2A (from UniProt P01563 24-188) (ligand)” belongs 5 nM.
With “6His-E113pAF IFNα2A (from UniProt P01563 24-188) (ligand)”, the equilibrium dissociation constant (Kd) stood at 19 nM.
For the substance “6His-E159pAF IFNα2A (from UniProt P01563 24-188) (ligand)”, the Kd was determined as 3.5 nM. Against the preceding substance, the Kd is about 5.4-fold lower.
Same read-out and setting: under “6His-F27pAF IFNα2A (from UniProt P01563 24-188) (ligand)” stands 8 nM; under “6His-F38S IFNα2A (from UniProt P01563 24-188) (ligand)”, 42 nM.
In turn, “6His-G37pAF IFNα2A (from UniProt P01563 24-188) (ligand)” showed an equilibrium dissociation constant (Kd) of 12 nM.
In the case of “6His-H34pAF IFNα2A (from UniProt P01563 24-188) (ligand)”, the Kd was 4 nM.
The same measure, in the same setting: to “6His-I24pAF IFNα2A (from UniProt P01563 24-188) (ligand)” belongs 5 nM; to “6His-I100pAF IFNα2A (from UniProt P01563 24-188) (ligand)”, 10 nM.
The same measure, in the same setting: to “6His-IFNα2A (from UniProt P01563 24-188) (ligand)” belongs 6 nM; to “6His-K31pAF IFNα2A (from UniProt P01563 24-188) (ligand)”, 52 nM.
Same read-out and setting: to “6His-K49pAF IFNα2A (from UniProt P01563 24-188) (ligand)” belongs 10 nM; to “6His-K134pAF IFNα2A (from UniProt P01563 24-188) (ligand)”, 10 nM.
The substance “6His-L110pAF IFNα2A (from UniProt P01563 24-188) (ligand)” returned a dissociation constant Kd of 13 nM. The Kd values of the last two substances are within 1.5-fold of each other.
The same measure, in the same setting: under “6His-L117pAF IFNα2A (from UniProt P01563 24-188) (ligand)” stands 8 nM; under “6His-P39pAF IFNα2A (from UniProt P01563 24-188) (ligand)”, 17 nM.
Regarding “6His-P109pAF IFNα2A (from UniProt P01563 24-188) (ligand)”, the dissociation constant Kd is 17 nM.
“6His-Q48pAF IFNα2A (from UniProt P01563 24-188) (ligand)” had an equilibrium dissociation constant (Kd) of 17 nM. This counts as double-digit nanomolar.
Consider “6His-R12pAF IFNα2A (from UniProt P01563 24-188) (ligand)”, for which the dissociation constant Kd was 8 nM.
The same measure, in the same setting: under “6His-R120pAF IFNα2A (from UniProt P01563 24-188) (ligand)” stands 4 nM; under “6His-R125pAF IFNα2A (from UniProt P01563 24-188) (ligand)”, 19 nM.
On to “6His-R149pAF IFNα2A (from UniProt P01563 24-188) (ligand)”, for which the Kd is 75 nM.
The same measure, in the same setting: under “6His-T106pAF IFNα2A (from UniProt P01563 24-188) (ligand)” stands 8 nM; under “6His-Y89pAF IFNα2A (from UniProt P01563 24-188) (ligand)”, 9 nM; under “6His-Y122S IFNα2A (from UniProt P01563 24-188) (ligand)”, 300 nM.
The same measure, in the same setting: to “C1S E107pAF IFNα2A (from UniProt P01563 24-188) (ligand)” belongs 9 nM; to “C1S IFNa2A (from UniProt P01563 24-188) (ligand)”, 11 nM.
Same read-out and setting: to “Sigma IFNαA (from UniProt P01563 24-188) (ligand)” belongs 11 nM.
